Data: publication PMC5683694 (ACS Omega, 2017)
Positions of bridges follow the written chain, without caps; N, C: chain ends. No end group written: not given here.

Legend:
live cells = settings: fluorescence correlation microscopy on live cells; cited from earlier work
[1] = cited from earlier work
[2] = molecular target: Grb7-SH2 domain (growth factor receptor bound protein 7, residues 415-532) (UniProt Q14451 415-532); assay: thermal shift assay
Sequence of Grb7-SH2 domain (growth factor receptor bound protein 7, residues 415-532) (Q14451 415-532): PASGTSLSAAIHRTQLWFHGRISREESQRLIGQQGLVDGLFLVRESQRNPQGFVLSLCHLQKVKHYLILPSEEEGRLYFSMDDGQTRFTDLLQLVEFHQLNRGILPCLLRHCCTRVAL

Molecule: NRRMKWKK
- translocation efficiency (live cells): poor translocation efficiency

Molecule: FQNRRMKWKK
- uptake compared to that of the full-length Penetratin sequence [1]: negligible uptake

Molecule: {CH2CO}-WFEGYDNTFPC (thioether N-11) [G7-18NATE (cyclo-CH2CO-WFEGYDNTFPC)]
- change in Tm [2]: 0.8 °C

Molecule: {CH2CO}-WFEGYDNTFPCRQIKIWFQNRRMKWKK (thioether N-11) [G7-18NATE-P16 (cyclo-(CH2CO-WFEGYDNTFPC-RQIKIWFQNRRMKWKK))]
- change in Tm [2]: 0.74 °C

Molecule: {CH2CO}-WFEGYDNTFPCRRMKWKK (thioether N-11) [G7-18NATE-P7 (cyclo-(CH2CO-WFEGYDNTFPC-RRMKWKK))]
- change in Tm [2]: 1.8 °C
